These results are taken from patent publication US20170015742A1 (published 2017).

B1: chBED-4G10-C8 (antibody, human IgG1, kappa, L234A L235A, V domains shown)
VH: QVQLQQSGTELVKPGSSVKISCKASGYTFTSNYMHWIRQQPGNGLEWIGWIYPGDGDTNYNHNFNGKATLTADKSSSTAYMQLSSLTSEDFAVYFCASSTRAIPGWFTYWGQGTLVTVSS
VL: DTVLTQSPALAVSPGERVSISCWASESVSTLMHWYQQKLGQQPKLLIYGASNLESGVPARFRGSGSGTDFTLTIDPVEADDTATYFCQQSWSDPYTFGAGTKLELKR
B2: chBEW-1B10 (antibody, human IgG1, kappa, L234A L235A, V domains shown)
VH: EVQLVESGGGLVQPGRSLKLSCAASGFSFSKYDMAWFRQTPTKGLEWVASITTSGVGTYYRDSVKGRFTVSRDNAKSTLYLQMDSLRSEDTATYYCARGYGAMDAWGQGTSVTVSS
VL: DIQMTQSPASLSASLEEIVTITCKASQDIDDYLSWYQQKPGKSPQLVIYAATRLADGVPSRFSGSGSGTQYSLKISRLQVDDSGIYYCLQSSSTPWTFGGGTNLELKR
notes: also called chBEW-1B10-B9-C3
B3: chBEW-1B4 (antibody, human IgG1, kappa, L234A L235A, V domains shown)
VH: QIQLVQSGPELKKPGESVKISCKASGYSFTNYGMYWVKQAPGQGLQYMGWIDTETGKPTYTDDFKGRFVFFLETSASTAYLQINNLKNEDMATYFCARWSGDTAGIRGPWFAYWGQGTLVTVSS
VL: DIRMTQSPASLSASLGETVNIECLASEDIYSDLAWYQQKPGKSPQLLIYNANDLQKGVPSRFSGSGSGTQYSLKINSLQSEDVATYFCQQYNYYPGTFGAGTKLELKR
notes: also called chBEW-1B4-C4
B4: hBEW-9E10.2 (antibody, V domains shown)
VH: EIQLVQSGAEVKKPGSSVKVSCKASGYTFTNYGMYWVKQAPGQGLEYMGWIDTETGRPTYADDFKGRFTFTADKSTSTAYMELSSLRSEDTAVYFCARWSGDTTGIRGPWFAYWGQGTLVTVSS
VL: DIRMTQSPSSLSASVGDRVTIECLASEDIYSDLAWYQQKPGKSPKLLIYNANGLQNGVPSRFSGSGSGTDYSLTISSLQPEDVATYFCQQYNYFPGTFGQGTKLEIK
B5: hBEW-9E10.5 (antibody, V domains shown)
VH: EIQLVQSGAEVKKPGSSVKVSCKASGYTFTNYGMYWVKQAPGQGLEYMGWIDTETGRPTYADDFKGRFTFTADKSTSTAYMELSSLRSEDTAVYFCARWSGDTTGIRGPWFAYWGQGTLVTVSS
VL: DIRMTQSPSSLSASVGDRVTITCLASEDIYSDLAWYQQKPGKSPKLLIYNANGLQNGVPSRFSGSGSGTDYTLTISSLQPEDVATYFCQQYNYFPGTFGQGTKLEIK
B6: hBEW-9E10.3 (antibody, V domains shown)
VH: EVQLVQSGAEVKKPGSSVKVSCKASGYTFTNYGMYWVRQAPGQGLEWMGWIDTETGRPTYADDFKGRFTFTADKSTSTAYMELSSLRSEDTAVYYCARWSGDTTGIRGPWFAYWGQGTLVTVSS
VL: DIRMTQSPSSLSASVGDRVTIECLASEDIYSDLAWYQQKPGKSPKLLIYNANGLQNGVPSRFSGSGSGTDYSLTISSLQPEDVATYFCQQYNYFPGTFGQGTKLEIK
B7: hBEW-9E10.6 (antibody, V domains shown)
VH: EVQLVQSGAEVKKPGSSVKVSCKASGYTFTNYGMYWVRQAPGQGLEWMGWIDTETGRPTYADDFKGRFTFTADKSTSTAYMELSSLRSEDTAVYYCARWSGDTTGIRGPWFAYWGQGTLVTVSS
VL: DIRMTQSPSSLSASVGDRVTITCLASEDIYSDLAWYQQKPGKSPKLLIYNANGLQNGVPSRFSGSGSGTDYTLTISSLQPEDVATYFCQQYNYFPGTFGQGTKLEIK
B8: hBEW-9E10.4 (antibody, V domains shown)
VH: EIQLVQSGSELKKPGASVKVSCKASGYTFTNYGMYWVKQAPGQGLEYMGWIDTETGRPTYADDFKGRFVFSLDTSVSTAYLQISSLKAEDTAVYFCARWSGDTTGIRGPWFAYWGQGTLVTVSS
VL: DIRMTQSPSSLSASVGDRVTITCLASEDIYSDLAWYQQKPGKSPKLLIYNANGLQNGVPSRFSGSGSGTDYTLTISSLQPEDVATYFCQQYNYFPGTFGQGTKLEIK

The target of one assay is T1, Human VEGF-A 165 (human, UniProt P15692 207-395).
T1 construct: Recombinant human VEGF165; also called huVEGF-A165; hVEGF165
In words: SPR (Biacore), antibody captured by anti-human Fc, hVEGF165 as analyte. As to the method: For example, approximately 9000 RU of goat anti-human Fc specific polyclonal antibody (Thermo Fisher Scientific Inc., Rockford, Ill.) diluted in 10 mM sodium acetate (pH 4.5) is directly immobilized across a CM5 research grade biosensor chip using a standard amine coupling kit according to manufacturer's instructions and procedures at 25 μg/ml. Unreacted moieties on the biosensor surface were blocked with ethanolamine. For kinetic analysis, rate equations derived from the 1:1 Langmuir binding model were fitted simultaneously to multiple antigen injections (using global fit analysis) with the use of Scrubber 2 (BioLogic Software), Biacore Biaevaluation 4.0.1 software or Biacore T100 Evaluation software. Purified antibodies or DVD-Ig molecules were diluted in running buffer for capture across goat anti-human Fc reaction surfaces. Antibodies or DVD-Ig molecules to be captured as a ligand (1 μg/ml) were injected over reaction matrices at a flow rate of 10 μl/minute. During the assay, all measurements were referenced against the capture surface alone (i.e., with no captured antibody or DVD-Ig molecule). […] The equilibrium dissociation constant KD (M) of the reaction between antibodies and the target antigen was then calculated from the kinetic rate constants by the following formula: KD=Koff/Kₒₙ. Binding was recorded as a function of time and kinetic rate constants were calculated.
T1 sequence (P15692 other isoform, or with tags, fused parts or gaps): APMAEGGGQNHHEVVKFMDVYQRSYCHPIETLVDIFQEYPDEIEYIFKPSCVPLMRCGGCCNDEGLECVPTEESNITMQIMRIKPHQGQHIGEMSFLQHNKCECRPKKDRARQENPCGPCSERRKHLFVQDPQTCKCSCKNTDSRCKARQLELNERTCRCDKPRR
For orientation: Kd means the free concentration of one partner at which half of the binding sites on the other are occupied at equilibrium, for simple one-to-one binding. The low end stands for a tighter complex, the high end for a looser complex. As a reminder, the kon is a measure of how fast the partners come together. Read a high kon as faster complex formation. Regarding B1, the Kd turned out to be 0.59 nM and the kon was 1e+07 M⁻¹ s⁻¹.
The like results for B2 were, in that order, 0.0094 nM and 5.5e+06 M⁻¹ s⁻¹.
The like results for B3 were, in that order, 0.011 nM and 1.1e+07 M⁻¹ s⁻¹.

The next assay has as its target Human VEGF-A 165 (human, UniProt P15692 207-395). In words: cell-based or functional assay.
Target sequence in this assay (P15692 other isoform, or with tags, fused parts or gaps limits assumed): as the sequence (P15692 other isoform, or with tags, fused parts or gaps) above
Turning to B4, the “hVEGF165 IC50 (nM), HMVEC-d proliferation” value is 0.181 nM.
On the same count and under the same terms, in the case of B5 it was 0.229 nM; in that of B6, 0.062 nM.
Same read-out and setting: in the case of B7 it was 0.068 nM; in that of B8, 0.071 nM.
